Positions count from the first letter of the chain named.
B1: M6-D08 (Fab, V domains shown)
VH: EVQLLESGGGLVQPGGSLRLSCAASGFTFSRYHMVWVRQAPGKGLEWVSSISPSGGWTNYADSVKGRFTISRDNSKNTLYLQMNSLRAEDTAMYYCAREMATIAGQFDPWGQGTLVTVSS
VL: DIQMTQSPSSLSASVGDRVTITCRASQSISSYLNWYQQKPGKAPKLLIYGASSLQSGVPSRFSGSGSGTDFTLTISSLQPEDSATYYCQQSYTRWTFGQGTKVEIK
B2: M6-A08 (Fab, V domains shown)
VH: EVQLLESGGGLVQPGGSLRLSCAASGFTFSPYPMQWVRQAPGKGLEWVSSISSSGGMTEYADSVKGRFTISRDNSKNTLYLQMNSLRAEDTAVYYCARDDYGGKGGAFDIWGQGTMVTVSS
VL: DIQMTQSPSSLSASVGDRVTITCRASQRISFYLNWFQQKPGKAPNLLIYGASSLQSGVPSRFSGSGSGTDFTLTISSLQPKDFGTYYCQQTFSTPNTFGQGTKLEIK
B3: M8-E06 (Fab, V domains shown)
VH: EVQLLESGGGLVQPGGSLRLSCAASGFTFSHYFMTWVRQAPGKGLEWVSSIVPSGGMTQYADSVKGRFTISRDNSKNTLYLQMNSLRAEDTAVYYCARDSYSSSWFDIWGQGTMVTVSS
VL: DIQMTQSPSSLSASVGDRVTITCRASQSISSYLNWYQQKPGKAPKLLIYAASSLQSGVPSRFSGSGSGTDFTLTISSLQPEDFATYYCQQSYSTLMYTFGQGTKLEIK
B4: M29-D10 (Fab, V domains shown)
VH: EVQLLESGGGLVQPGGSLRLSCAASGFTFSWYPMYWVRQAPGKGLEWVSSIGSSGGPTPYADSVKGRFTISRDNSKNTLYLQMNSLRAEDTAVYYCARWADYGGSLDYWGQGTLVTVSS
VL: DIQMTQSPSSLSASVGDTVSITCRASQSITIYLNWYQHKPGKAPNLLIYGASNLHSGVPSRFSGSGSGTDFTLTISSLQPEDFATYYCQQSYDTPLTFGGGTKVEIK
B5: M29-C07 (Fab, V domains shown)
VH: EVQLLESGGGLVQPGGSLRLSCAASGFTFSGYDMMWVRQAPGKGLEWVSVISSSGGNTAYADSVKGRFTISRDNSKNTLYLQMNSLRAEDTAVYYCARESSGLYYFDYWGQGTLVTVSS
VL: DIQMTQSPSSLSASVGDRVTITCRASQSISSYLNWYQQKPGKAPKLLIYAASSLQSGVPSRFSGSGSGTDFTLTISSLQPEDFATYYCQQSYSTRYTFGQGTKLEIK
B6: M29-G10 (Fab, V domains shown)
VH: EVQLLESGGGLVQPGGSLRLSCAASGFTFSFYKMIWVRQAPGKGLEWVSSISSSGGSTQYADSVKGRFTISRDNSKNTLYLQMNSLRAEDTAVYYCARDRVDLGYLDYWGQGTLVTVSS
VL: DIQMTQSPSSLSSSVGDSATITCRASQSISIYLNWYQQKPGKAPKILIYGASQLESGVPSRFSGSGSGTDFTLTVSGLQPEDFATYWCQQSYNVPYTFGQGTKLEIK
B7: M76-G02 (Fab, V domains shown)
VH: EVQLLESGGGLVQPGGSLRLSCAASGFTFSLYAMWWVRQAPGKGLEWVSYISSSGGFTSYADSVKGRFTISRDNSKNTLYLQMNSLRAEDTAVYYCARYRVGVAATDYWGQGTLVTVSS
VL: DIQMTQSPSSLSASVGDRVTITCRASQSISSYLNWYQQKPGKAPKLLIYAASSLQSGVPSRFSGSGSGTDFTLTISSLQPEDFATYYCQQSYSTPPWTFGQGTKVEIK
B8: M6-G05 (Fab, V domains shown)
VH: EVQLLESGGGLVQPGGSLRLSCAASGFTFSRYRMVWVRQAPGKGLEWVSSIYPSGGMTAYADSVKGRFTISRDNSKNTLYLQMNSLRAEDTAVYYCARDAVGIGDAFDIWGQGTMVTVSS
VL: DIQMTQSPSSLSASVGDRVTITCRASQSISTYLNWYQLKPGKAPKLLIYNAFSMERGVPSTISGSGSGTDFTLTISSLQPEDFATYYCQQSYTTPTTFGQGTKVEIK
B9: M76-G06 (Fab, V domains shown)
VH: EVQLLESGGGLVQPGGSLRLSCAASGFTFSGYIMHWVRQAPGKGLEWVSWIYPSGGWTEYADSVKGRFTISRDNSKNTLYLQMNSLRAEDTAVYYCARDAPGVGAIDYWGQGTLVTVSS
VL: DIQMTQSPSSLSASVRDRVTITCRASQSISTYLNWYQQKPGEAPKLLVFAASSLQSGVPSRFSGSGSGTDFTLSISSLQPEDFATYYCQQSYSTPHTFGQGAKVEIK
B10: M29-G08 (Fab, V domains shown)
VH: EVQLLESGGGLVQPGGSLRLSCAASGFTFSYYHMWWVRQAPGKGLEWVSGISPSGGFTFYADSVKGRFTISRDNSKNTLYLQMNSLRAEDTAVYYCARDYYYDSSGYSPLGYWGQGTLVTVSS
VL: DIQMTQSPATLSASPGETVTLSCRASQNIGNDVAWYRQRPGQAPRLLIHHASTRAYGIPARLRGSGSATEFTLTITSLEPEDFAIYYCQQFYDWPAHTFALGTRLEIKR
B11: M8-C04 (Fab, V domains shown)
VH: EVQLLESGGGLVQPGGSLRLSCAASGFTFSYYPMQWVRQAPGKGLEWVSYIYPSGGLTSYADSVKGRFTISRDNSKNTLYLQMNSLRAEDTAVYYCARLFYGSGSVGFEYWGQGTLVTVSS
VL: QSALTQPPSVSVSPGQTASITCSGDKLGDKYTSWHQQKPGQSPVLVIYQDSKRPSGIPERFSGSNSGNTATLTISGTQAMDEADYYCQAWDSSTVFGGGTRLTVL
B12: M77-H04 (Fab, V domains shown)
VH: EVQLLESGGGLVQPGGSLRLSCAASGFTFSYYTMIWVRQAPGKGLEWVSGIRSSGGGTRYADSVKGRFTISRDNSKNTLYLQMNSLRAEDTAVYYCAKDGSRYSYGSIYYYYGMDAWGQGTTVTVSS
VL: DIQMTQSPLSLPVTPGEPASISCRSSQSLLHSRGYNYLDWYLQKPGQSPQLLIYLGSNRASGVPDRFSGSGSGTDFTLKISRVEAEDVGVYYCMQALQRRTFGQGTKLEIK
B13: M28-F01 (Fab, V domains shown)
VH: EVQLLESGGGLVQPGGSLRLSCAASGFTFSVYLMHWVRQAPGKGLEWVSGISPSGGYTQYADSVKGRFTISRDNSKNTLYLQMNSLRAEDTAVYYCARPGGLDAFDIWGQGTMVTVSS
VL: DIQMTQSPSSLSASVGDRVTITCRASQSINTYLNWYQQKPGKAPKVLIHAASTLESGVPSRFSGSGSGTDFTLTISSLQPEDFATYYCQQSYSTPPTFGQGTKVEIK
B14: M76-F02 (Fab, V domains shown)
VH: B13 VH with V31L, L33D, H35N, Y57Q, Q59M, P99Q, G100P, G101M, L102I, D103S
VL: DIQMTQSPSSLSASVGDRVTITCRASQTIDNYLHWYQQKPGKAPKVLIHDASSLQSGVPPRFSGSGSGTDFTLTISSLQPEDFATYYCQQSYDTPQYTFGQGTKLEIK
B15: M77-C07 (Fab, V domains shown)
VH: B9 VH with G31L, H35G, W50G, W57F, E59M, D99E, A100S, P101S, G104A, I106P
VL: B13 VL with S10T, S28N, N30S, T31S, V46L, H49Y, T53S, E55Q, Y87S, P96R
B16: M8-G09 (Fab, V domains shown)
VH: EVQLLESGGGLVQPGGSLRLSCAASGFTFSLYEMLWVRQAPGKGLEWVSVIYPSGGYTDYADSVKGRFTISRDNSKNTLYLQMNSLRAEDMAVYYCARSFSGFGEIDYWGQGTLVTVSS
VL: DIQMTQSPSSLSASVGDTVTITCRASQGVSYYLAWFQQKPGKAPKSLIYGASSLQSGVPSKFSGSGSGTVFTLTISSLQPDDFATYYCQQYNTYPPTFGQGTRLDIK
B17: M28-F07 (Fab, V domains shown)
VH: EVQLLESGGGLVQPGGSLRLSCAASGFTFSDYTMYWVRQAPGKGLEWVSSIVPSGGHTLYADSVKGRFTISRDNSKNTLYLQMNSLRAEDTAVYYCAKDHLSSWYGGFFDYWGQGTLVTVSS
VL: DIQMTQSPSSVSASVGDRVTITCRASQGISSWLAWYQQKPGKAPKLLIYATSGLQSGVPSRFSGSGSGTDFTLTISSLQPEDFATYYCQQAKSFPLTFGGGTRVEIK
B18: M74-A07 (Fab, V domains shown)
VH: EVQLLESGGGLVQPGGSLRLSCAASGFTFSQYLMMWVRQAPGKGLEWVSSIYPSGGYTSYADSVKGRFTISRDNSKNTLYLQMNSLRAEDTAVYYCARVSTAVADNDYWGQGTLVTVSS
VL: DIQMTQSPSSLSASVRDRVTITCRTSQNINTYLNWYYQAPGRAPKLLIFGVSSLHRGVSSRFSGSGDGTEFTLTISSLQPEDIGTYFCQQSYSSPWTFGQGTKVEIK
B19: M6-A06 (Fab, V domains shown)
VH: B18 VH with Q31L, L33Q, M35T, S50G, Y52W, Y57F, S59D
VL: DIQMTQSPSSLSASVGDSVTISCRASQSISMYLNWYQHKPGKAPKLLIYGTSSLQSGVPSRFSGSGPGGTDFTLTISSLQPEDFATYYCQQSYSAPWTFGQGTKVEIK
B20: M6-D03 (Fab, V domains shown)
VH: B18 VH with Q31K, L33F, M35G, S50V, Y52G, P53S, Y57W
VL: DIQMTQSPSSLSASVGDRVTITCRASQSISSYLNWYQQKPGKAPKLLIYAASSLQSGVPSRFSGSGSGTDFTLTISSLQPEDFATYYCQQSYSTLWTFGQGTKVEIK
B21: M8-D05 (Fab, V domains shown)
VH: EVQLLESGGGLVQPGGSLRLSCAASGFTFSLYNMNWVRQAPGKGLEWVSSISPSGGFTDYADSVKGRFTISRDNSKNTLYLQMNSLRAEDTAVYYCARDLDLGILDYWGQGTLVTVSS
VL: DIQMTQSPSFVSASVGDRVTITCRASQDISSWLVWYQQKPGKGPKLLIYDASNLQSGVPSRFSGGGSGTHFTLTISSLQPEDFATYYCQQADGFPLTFGGGTKVEMK
B22: M29-E02 (Fab, V domains shown)
VH: EVQLLESGGGLVQPGGSLRLSCAASGFTFSRYPMMWVRQAPGKGLEWVSVIYPSGGDTFYADSVKGRFTISRDNSKNTLYLQMNSLRAEDTAVYYCASGDDYLWEAAVYWGQGTLVTVSS
VL: QSVLTQPPSVSEAPRQRVTISCSGSSSNIGNNAVSWYQQLPGKAPKLLIYYDDLLPSGVSDRFSGSKSGTSASLAISGLRSEDEADYYCAAWDDSLNGFVFGTGTKVTVL
B23: M76-H02 (Fab, V domains shown)
VH: EVQLLESGGGLVQPGGSLRLSCAASGFTFSMYWMQWVRQAPGKGLEWVSYIYPSGGPTKYADSVKGRFTISRDNSKNTLYLQMNSLRAEDTAVYYCARPSGSYGDAFDIWGQGTMVTVSS
VL: DIQMTQSPSSLSASEGDRVTITCRASQDISVYLNWYQMKSGKAPKLLIYGGASLQSGVPARFSGSGYGTDFTLTITDLRPEDFATYYCQQSYSLPFTFGGGTKVEIK

Target: T1, human plasma kallikrein (human, UniProt P03952 20-390; P03952 391-638)
T1 construct: two disulfide-linked chains; NP_000883.2; also called pKal; hpKal
T1 sequence (P03952 20-390 limits assumed, chain 1 of 2): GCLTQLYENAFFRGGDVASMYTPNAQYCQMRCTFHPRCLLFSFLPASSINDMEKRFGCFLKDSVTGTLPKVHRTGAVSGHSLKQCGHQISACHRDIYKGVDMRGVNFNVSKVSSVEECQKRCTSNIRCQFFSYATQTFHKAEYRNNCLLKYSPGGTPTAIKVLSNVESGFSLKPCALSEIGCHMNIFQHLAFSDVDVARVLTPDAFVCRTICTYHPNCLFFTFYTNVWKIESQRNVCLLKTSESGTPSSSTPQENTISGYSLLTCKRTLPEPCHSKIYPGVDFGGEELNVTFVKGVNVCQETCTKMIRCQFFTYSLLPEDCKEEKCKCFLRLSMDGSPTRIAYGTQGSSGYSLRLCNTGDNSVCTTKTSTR
T1 sequence (P03952 391-638 limits assumed, chain 2 of 2): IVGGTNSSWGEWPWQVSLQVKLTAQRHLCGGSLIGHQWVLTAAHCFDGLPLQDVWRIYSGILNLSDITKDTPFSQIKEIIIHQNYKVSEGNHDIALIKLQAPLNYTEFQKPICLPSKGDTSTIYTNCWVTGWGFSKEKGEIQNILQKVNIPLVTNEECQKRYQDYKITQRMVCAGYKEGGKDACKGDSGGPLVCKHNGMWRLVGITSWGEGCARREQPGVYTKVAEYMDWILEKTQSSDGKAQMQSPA
Experiment: ELISA, biotinylated pKal signal over streptavidin background

Going from B1 to B2, the “ELISA (T/B)” value rises from 16 to 23.4.

Going from B3 to B4, the “ELISA (T/B)” value rises from 8.8 to 23.6.

First: B5
Second: B6
The “ELISA (T/B)” value of the first is lower: 5.2 for the first, 16.4 for the second.

First: B7
Second: B8
The “ELISA (T/B)” value of the first is lower: 10.3 for the first, 18.5 for the second.

First: B9
Second: B10
The “ELISA (T/B)” value of the first is lower: 11.8 for the first, 40.4 for the second.

Going from B11 to B12, the “ELISA (T/B)” value falls from 44.7 to 7.6.

Going from B13 to B14, the “ELISA (T/B)” value rises from 1.5 to 6.4.

Going from B15 to B16, the “ELISA (T/B)” value rises from 16.1 to 28.2.

First: B17
Second: B18
The “ELISA (T/B)” value of the first is higher: 33 for the first, 8.6 for the second.

Compared with B19, B20 is higher in “ELISA (T/B)” value: 11.7 for the first, 15.5 for the second.

First: B21
Second: B22
The “ELISA (T/B)” value of the first is higher: 11.9 for the first, 2 for the second.

With B23 the “ELISA (T/B)” value was 13.4.
